In PMC6152381, “The C5 Variant of the Butyrylcholinesterase Tetramer Includes a Noncovalently Bound 60 kDa Lamellipodin Fragment” (Molecules : A Journal of Synthetic Chemistry and Natural …, 2017):

B1: human butyrylcholinesterase (BChE) (enzyme, human (endogenous in plasma), UniProt P06276 29-602, looked up)
chain: EDDIIIATKNGKVRGMNLTVFGGTVTAFLGIPYAQPPLGRLRFKKPQSLTKWSDIWNATKYANSCCQNIDQSFPGFHGSEMWNPNTDLSEDCLYLNVWIPAPKPKNATVLIWIYGGGFQTGTSSLHVYDGKFLARVERVIVVSMNYRVGALGFLALPGNPEAPGNMGLFDQQLALQWVQKNIAAFGGNPKSVTLFGESAGAASVSLHLLSPGSHSLFTRAILQSGSFNAPWAVTSLYEARNRTLNLAKLTGCSRENETEIIKCLRNKDPQEILLNEAFVVPYGTPLSVNFGPTVDGDFLTDMPDILLELGQFKKTQILVGVNKDEGTAFLVYGAPGFSKDNNSIITRKEFQEGLKIFFPGVSEFGKESILFHYTDWVDDQRPENYREALGDVVGDYNFICPALEFTKKFSEWGNNAFFYYFEHRSSKLPWPEWMGVMHGYEIEFVFGLPLERRDNYTKAEEILSRSIVKRWANFAKYGNPNETQNNSTSWPVFKSTEQKYLTLNTESTRIMTKLRAQQCRFWTSFFPKVLEMTGNIDEAEWEWKAGFHRWNNYMMDWKNQFNDYTSKKESCVGL
modifications: 9 N-linked glycans
notes: each subunit has 574 amino acids; forty residues at the C-terminus are the tetramerization domain; also called C4; BChE tetramer; source: also purified from Cohn Fraction IV-4 (Q-ceramic ion exchange, hupresin)

Assays:
[1] = target: mouse anti-human BChE monoclonal antibody B2 18-5 (mouse); assay: capture on immobilised antibody, activity assay of the unbound supernatant; hupresin-purified BChE (C4 and C5) in 0.02 M procaine, 0.02 M TrisCl pH 7.5 rotated with 0.04 mL B2 18-5 Sepharose beads at room temperature for 4 h
[2] = target: the molecule itself; assay: native gel or EMSA; pure human BChE from Cohn Fraction IV-4 on a 4-30% nondenaturing polyacrylamide gradient gel, 4 °C, stained for BChE activity

Chain of mouse anti-human BChE monoclonal antibody B2 18-5 (mouse) (heavy, as listed by the source, chain 1 of 2): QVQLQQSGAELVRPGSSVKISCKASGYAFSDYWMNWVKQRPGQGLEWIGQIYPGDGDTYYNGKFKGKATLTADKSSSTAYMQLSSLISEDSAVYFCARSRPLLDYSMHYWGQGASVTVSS
Chain of mouse anti-human BChE monoclonal antibody B2 18-5 (mouse) (light, as listed by the source, chain 2 of 2): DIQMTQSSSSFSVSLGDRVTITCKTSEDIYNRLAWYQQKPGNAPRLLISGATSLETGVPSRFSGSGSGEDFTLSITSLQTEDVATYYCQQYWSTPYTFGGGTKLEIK

Molecule	percent bound [1] [%]	binding result [2]
human butyrylcholinesterase (BChE) (from UniProt P06276 29-602) (enzyme)	97	
B1		binds
